Test [1] concerns the target T1, rhAngiopoietin-2 (R&D systems cat 623-AN/CF) (human, UniProt O15123 19-496, limits assumed).
T1 sequence (looked up): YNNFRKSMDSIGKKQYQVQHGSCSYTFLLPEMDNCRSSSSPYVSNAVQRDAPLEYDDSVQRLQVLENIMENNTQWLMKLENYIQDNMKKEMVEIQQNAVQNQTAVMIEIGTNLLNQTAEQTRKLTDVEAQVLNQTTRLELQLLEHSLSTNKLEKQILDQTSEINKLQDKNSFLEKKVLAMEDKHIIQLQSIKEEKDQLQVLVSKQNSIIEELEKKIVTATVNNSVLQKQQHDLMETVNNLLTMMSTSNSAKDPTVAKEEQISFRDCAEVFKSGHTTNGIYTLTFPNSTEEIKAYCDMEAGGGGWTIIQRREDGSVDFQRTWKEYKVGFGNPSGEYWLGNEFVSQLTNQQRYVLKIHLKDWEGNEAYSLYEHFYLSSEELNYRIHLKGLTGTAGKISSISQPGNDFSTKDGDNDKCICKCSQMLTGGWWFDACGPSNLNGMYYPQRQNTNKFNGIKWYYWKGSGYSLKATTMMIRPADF
Nature of the test: cell-based or functional assay.

Test [2] concerns the target T2, human ANGPT2 (SPR analyte) (human, UniProt O15123 275-496, limits assumed).
T2 construct: domain: FLD domain; also called HuANGPT2; human ANGPT2 FLD domain
T2 sequence (looked up): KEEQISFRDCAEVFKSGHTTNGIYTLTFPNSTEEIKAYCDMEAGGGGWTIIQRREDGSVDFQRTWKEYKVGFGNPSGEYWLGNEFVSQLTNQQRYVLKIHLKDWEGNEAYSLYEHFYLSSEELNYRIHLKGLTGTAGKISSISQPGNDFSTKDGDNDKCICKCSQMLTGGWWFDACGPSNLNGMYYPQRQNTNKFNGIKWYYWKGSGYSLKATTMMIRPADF
Nature of the test: SPR (ProteOn XPR36), antibody captured on Protein A/G, ANGPT2 as analyte, 1:1 Langmuir fit. The method, then:
(§1) The binding affinity to the various ANGPT2 analytes is determined by surface plasmon resonance (SPR) using a ProteOn XPR36 (Bio-Rad). Unless otherwise stated, all reagents are obtained from Bio-Rad. The running buffer for all assays and dilutions (except where stated) is phosphate buffered saline (PBS)/ethylenediamine tetraacetic acid (EDTA) with 0.01% Tween20 (PBS-T-EDTA). PBS-T-EDTA is prepared by adding 100 μl of 100% Tween20 to 2 L of PBS-T-EDTA with an initial concentration of 0.005% Tween20 to make a final Tween20 concentration of 0.01%. The general linearized model (GLM) sensorchip is normalized, pre-conditioned, and activated with an equal mixture of 1-ethyl-3-[3-dimethylaminopropyl]carbodiimide (EDC)/N-hydroxysulfosuccinimide (s-NHS) in the horizontal direction for 300 sec at a flow rate of 30 μl/min. Immobilization is then is done with Recombinant Protein A/G (Thermo Scientific) (60 μg/ml in 10 mM acetate pH 4.5) in the horizontal direction for 300 sec at a flowrate of 30 μl/min resulting in about 4370-4875 response units (RUs) of Protein A/G on the surface. The sensorchip is then deactivated with 1M ethanolamine HCl in the horizontal direction for 300 sec at a flowrate of 30 μl/min. The sensorchip is stabilized with 18 sec of 0.85% phosphoric acid at a flowrate of 100 μl/min 3 times horizontally and 3 times vertically.
(§2) Each ANGPT2 antibody is captured on the Protein A/G surface vertically for 300 sec at a flowrate of 30 μl/min resulting in a capture level of about 2500 RU. The baseline is stabilized by injecting PBS-T-EDTA for 60 sec at a flowrate of 100 μl/min horizontally with dissociation of 120 sec. The analyte (e.g., HuANGPT2) is injected horizontally over the captured antibody for 300 sec at a flowrate of 30 μl/min and a dissociation for 1800 sec. […] The surface is regenerated by injecting 0.85% phosphoric acid for 18 sec at a flowrate of 100 μl/min one time horizontally and one time vertically. PBS-T-EDTA is injected for 60 sec at a flowrate of 100 μl/min one time vertically and one time horizontally.
(§3) The interspot (interactions with sensor surface) and blank (PBS-T-EDTA with 0.01% Tween20 or 0 nM of analyte (here HuANGPT2)) are subtracted from the raw data.

Another test deals with T3, cynomolgus (cyno) ANGPT2 (cynomolgus, UniProt A0A2K5VNX6 275-496).
T3 construct: domain: FLD domain; also called cyno ANGPT2 FLD domain
T3 sequence: T2 sequence (looked up) with E2G, I23V, F28L, I35V, G154A, A212G, D221G
The description is as above. The method, then:
as §1, §2, §3

The target of test [3] is T4, Human ANGPT2 Dimer (CC-FLD) (human, UniProt O15123 74-496, limits assumed).
T4 construct: domain: CC-FLD; also called ANGPT2 protein with His-tag; not shown: His-tag
T4 sequence (looked up): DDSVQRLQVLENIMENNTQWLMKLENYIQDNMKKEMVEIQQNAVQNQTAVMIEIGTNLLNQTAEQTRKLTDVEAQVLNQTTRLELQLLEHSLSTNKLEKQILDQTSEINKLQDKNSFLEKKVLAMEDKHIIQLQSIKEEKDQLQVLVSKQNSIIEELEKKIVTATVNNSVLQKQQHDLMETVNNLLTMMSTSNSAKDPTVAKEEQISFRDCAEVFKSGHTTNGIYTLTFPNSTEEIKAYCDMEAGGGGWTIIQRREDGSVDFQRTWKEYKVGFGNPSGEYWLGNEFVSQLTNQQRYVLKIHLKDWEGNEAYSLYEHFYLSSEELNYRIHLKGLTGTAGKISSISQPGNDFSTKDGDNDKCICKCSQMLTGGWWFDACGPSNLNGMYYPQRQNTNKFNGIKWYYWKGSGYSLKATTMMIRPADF
Nature of the test: flow cytometry blocking assay: antibody titrated against His-tagged human ANGPT2 dimer (CC-FLD) binding to HEK293 human Tie2 cells. The method, then: Human ANGPT2 Dimer (CC-FLD) is pre-incubated with the testing antibodies. The ANGPT2/Antibody mixture is then incubated with HEK293 human Tie2 cells at 4° C. After washing, the cells are stained with anti-His-AF647 (from GenScript) for detection of the His-tag on the ANGPT2 protein. The binding of the secondarily labelled ANGPT2 to human Tie2 cells is detected by FLOW cytometry. The average of the duplicate values for each concentration point is used to derive the curve fit graphs. Antibodies that prevent ANGPT2 from binding to the Tie2 cells are considered blocking antibodies. The results are shown in FIGS. 3A-3G and the EC50 values are shown in Table 5 based on the average of duplicate values.
A general note: In flow cytometry, cells or beads pass a laser one at a time.

Another test deals with T5, rat ANGPT2 (rat, UniProt O35462 275-496, limits assumed).
T5 construct: domain: FLD domain; also called rat ANGPT2 FLD domain
T5 sequence (looked up): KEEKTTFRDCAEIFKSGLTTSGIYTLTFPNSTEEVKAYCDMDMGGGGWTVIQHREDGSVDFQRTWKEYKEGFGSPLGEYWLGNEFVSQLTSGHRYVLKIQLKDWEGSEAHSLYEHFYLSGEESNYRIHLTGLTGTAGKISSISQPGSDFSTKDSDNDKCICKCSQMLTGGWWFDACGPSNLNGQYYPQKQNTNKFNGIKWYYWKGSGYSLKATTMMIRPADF
Nature of the test: SPR (ProteOn XPR36), antibody captured on Protein A/G, rat ANGPT2 as analyte. As to the method:
as §1
as §2, with “horizontally. […]” for “horizontally.”

The text below walks through data of patent US20200407435A1 (Boehringer Ingelheim, published 2020).

A word on the Kd: it is the concentration at which binding is half-saturated. Read a low Kd as a tighter complex. As a reminder, the koff is the first-order rate constant of dissociation. As usually defined, the kon is a measure of how fast the partners come together. Low values mean slow association, high ones fast association. Usually EC50 stands for the concentration needed to bring the measured effect to its halfway point. A lower EC50 goes with higher potency in that assay.

Where a chain is given by its changes, count along the chain named. “And” between values parts separate entries of the source, which are not always exact repeats. Equal values may be shown once.

B1: MEDI3617 analog (Medimmune) (antibody, human IgG1, kappa, V domains shown)
VH: QVQLVESGGGVVQPGRSLRLSCAASGFTFTNYGMHWVRQAPGKGLEWVAVISHDGNNKYYVDSVKGRFTISRDNSKNTLYLQMNSLRAEDTAVYYCAREGIDFWSGLNWFDPWGQGTLVTVSS
VL: EIVLTQSPGTLSLSPGERATLSCRASQSITGSYLAWYQQKPGQAPRLLITGASSWATGIPDRFSGSGSGTDFTLTISRLEPEDFAVYYCQQYSSSPITFGQGTRLEIKR
notes: Based on the description in U.S. Pat. No. 8,507,656; also called MED3617 analog; analog of MED3617
With B1, in test [1], the “Tie2 phosphorylation functional assay, EC50” value is 2.7 nM. In addition, in test [2], the equilibrium dissociation constant (Kd) was determined as 27 nM, the koff worked out at 0.0166 s⁻¹ and the kon was 614000 M⁻¹ s⁻¹.

B2: ANGPT2-opt-31 (humanized) (antibody, human IgG1, kappa, V domains shown)
VH: QVQLVQSGAEVKKPGSSVKVSCKASGYIFIDYFINWVRQAPGQGLEWMGKIGPGSGSSSSNEKFKGRVTITADKSTSTAYMELSSLRSEDTAVYYCAREAFDYDGDYYGMAYWGQGTLVTVSS
VL: EIVMTQSPATLSVSPGERATLSCKSSQSLLSSGNQKSFLAWYQQKPGQAPRLLIYGASTRESGIPARFSGSGSGTEFTLTISSLQSEDFAVYYCQNDHSYPITFGQGTKLEIKR
notes: also called Ang2-opt-31
For B2, the “Tie2 phosphorylation functional assay, EC50” value in test [1] is 3.8 nM and 4.4 nM. In test [2], this molecule gave a Kd of 0.091 nM, a koff of 1.14e-05 s⁻¹ and a kon of 125000 M⁻¹ s⁻¹. In the test with cynomolgus (cyno) ANGPT2, this molecule gave an equilibrium dissociation constant (Kd) of 0.145 nM, a koff of 1.96e-05 s⁻¹ and an on-rate (kon) of 135000 M⁻¹ s⁻¹. In addition, the EC50 in test [3] is 13 nM.

B3: ANGPT2-opt-19 (humanized) (antibody, human IgG1, kappa, V domains shown)
VH: B2 VH
VL: B2 VL with K24R, S25A, L29V, S62T, N96Q
notes: also called Ang2-opt-19
As to B3, in test [1], the “Tie2 phosphorylation functional assay, EC50” value was 5 nM and 4.6 nM. This molecule showed an equilibrium dissociation constant (Kd) with rat ANGPT2 of no less than 118 nM. In test [2], this molecule came in with a Kd of 0.712 nM, a koff of 5.83e-05 s⁻¹ and a kon of 81800 M⁻¹ s⁻¹. In the test with cynomolgus (cyno) ANGPT2, this molecule yielded a Kd of 0.844 nM, a koff of 7.4e-05 s⁻¹ and a kon of 87700 M⁻¹ s⁻¹. Moreover, in test [3], a half-maximal effect (EC50) was put at 15.1 nM.

B4: ANGPT2-opt-2 (humanized) (antibody, human IgG1, kappa, V domains shown)
VH: B2 VH with D31E, D104E
VL: B2 VL with S31A, S37N
notes: also called Ang2-opt-2; ANGP12-opt-2
Consider B4, for which, in test [1], the “Tie2 phosphorylation functional assay, EC50” value was 1.8 nM and 1.9 nM. Also, the equilibrium dissociation constant (Kd) in the test with rat ANGPT2 is no less than 118 nM; in test [2], 0.649 nM; with cynomolgus (cyno) ANGPT2 it was 0.626 nM. In addition, the koff in test [2] turned out to be 8.11e-05 s⁻¹; with cynomolgus (cyno) ANGPT2, 8.45e-05 s⁻¹. In addition, the kon in test [2] was determined as 125000 M⁻¹ s⁻¹; with cynomolgus (cyno) ANGPT2, 135000 M⁻¹ s⁻¹. In test [3], this molecule returned an EC50 of 14.8 nM.

B5: ANGPT2-opt-1 (humanized) (antibody, human IgG1, kappa, V domains shown)
VH: B2 VH with D104E
VL: B2 VL with S31A, S37N
notes: also called Ang2-opt-1
As to B5, in test [1], the “Tie2 phosphorylation functional assay, EC50” value is 3 nM and 3.2 nM. Further, in test [2], the Kd came out at 0.294 nM, the koff was 4.25e-05 s⁻¹ and the kon is 144000 M⁻¹ s⁻¹. In the test with cynomolgus (cyno) ANGPT2, this molecule had a Kd of 0.36 nM, a koff of 5.48e-05 s⁻¹ and a kon of 152000 M⁻¹ s⁻¹. For the same molecule, the EC50 in test [3] was 13.2 nM.

B6: chimeric lead CL-209881 (antibody, V domains shown)
VH: QVQLKQSGAELVKPGSSVKISCRASGYIFIDYFINWVKQRPGQGLEWIGKIGPGSGSSSSNEKFKGKATLTADKSSSTAYMQLSSLTSEDSAVYFCAREAFDYDGDYYGMAYWGQGTSVTVSS
VL: DIVMTQSPSSLSVSAGEKVTMSCKSSQSLLNSGNQKNFLAWYQQKPGQPPKLLIYGASTRESGVPDRFTGSGSGTDFTLTITSVQAEDLAVYYCQNDHSYPITFGSGTKLEIK
notes: Chimeric antibody with murine variable domains; the constant regions of the tested antibody are not
For B6, in test [2], the affinity, expressed as Kd, was 0.155 nM; the koff is 2.34e-05 s⁻¹; the kon was 151000 M⁻¹ s⁻¹. In the test with cynomolgus (cyno) ANGPT2, this molecule came in with a Kd of 0.24 nM, a koff of 3.93e-05 s⁻¹ and a kon of 164000 M⁻¹ s⁻¹.

B7: LC06 (Roche) (antibody, human IgG1, lambda, V domains shown)
VH: not shown
VL: QPGLTQPPSVSVAPGQTARITCGGNNIGSKSVHWYQQKPGQAPVLVVYDDSDRPSGIPERFSGSNSGNTATLTISRVEAGDEADYYCQVWDSSSDHYVFGTGTKVTVLG
notes: Based on the description in U.S. Pat. No. 9,340,609
With B7, in test [1], the “Tie2 phosphorylation functional assay, EC50” value came to 1.3 nM. For the same molecule, the equilibrium dissociation constant (Kd) in test [2] worked out at 12 nM.

B8: Nesvacumab analog (Regeneron) (antibody, V domains shown)
VH: EVQLVESGGGLVQPGGSLRLSCAASGFTFSSYDIHWVRQATGKGLEWVSAIGPAGDTYYPGSVKGRFTISRENAKNSLYLQMNSLRAGDTAVYYCARGLITFGGLIAPFDYWGQGTLVTVSS
VL: EIVLTQSPGTLSLSPGERATLSCRASQSVSSTYLAWYQQKPGQAPRLLIYGASSRATGIPDRFSGSGSGTDFTLTISRLEPEDFAVYYCQHYDNSQTFGQGTKVEIKR
notes: also called analog of REGN910 (nesvacumab); Nevescumab analog
In turn, B8 gave a dissociation constant Kd with rat ANGPT2 of 0.159 nM.
